Test results reported in patent US10220090B2, “BCMA Antigen binding proteins” (Amgen Inc., priority 2012, dated 2019).
Residue numbers refer to the chain shown, from its start.

T1: BCMA on H929 cells (Homo sapiens, UniProt Q02223, N81S)
T1 construct: host or cells: H929
T1 sequence (Q02223 1-184 N81S): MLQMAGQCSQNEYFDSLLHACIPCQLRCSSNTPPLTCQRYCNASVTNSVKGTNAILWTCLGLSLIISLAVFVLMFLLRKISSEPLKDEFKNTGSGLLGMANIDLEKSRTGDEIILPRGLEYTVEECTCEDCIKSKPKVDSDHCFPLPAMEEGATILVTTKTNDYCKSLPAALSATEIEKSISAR

T2: human BCMA (Homo sapiens, UniProt Q02223, N81S)
T2 construct: expressed in transfected cells
T2 sequence (Q02223 1-184 N81S): T1 sequence (Q02223 1-184 N81S)

B1: 29C12.1 ADC (conjugate)
VH: EVQLLESGGALVQPGGSLRLSCAASGFTFSSYAMNWVRQAPGKGLEWVSAISVGGDTYYADSVKGRFTISRDNSKNTLYLQMNSLRAEDTAVYYCAKDQVTMVRGVWYYYGLDVWGQGTTVTVSS
VL: DIVMIQSPLSLPVTPGEPASISCRSSQSLLHSNGNNYLDWYLQKPGQSPHLLISLGSNRTSGVPDRFSGSGSGTDFTLKISRVEAEDVGVYYCMQALQPPRRFGQGTKLEIKR
B2: 40D7.1 ADC (conjugate)
VH: B1 VH
VL: B1 VL with Y37F, F67L, V90I, Q98R
B3: 33C7.1 ADC (conjugate)
VH: B1 VH with Q81H, M82V, R86S, T90S, M102L
VL: B1 VL with D1V, M4L, V90F
B4: 37B2.1 ADC (conjugate)
VH: B1 VH with S31N, Q81H, M82V, R86S, T90S, M102L
VL: B1 VL with D1V, M4L, V90F
B5: 35D2.1 ADC (conjugate)
VH: B1 VH with D56G, Q81H, M82V
VL: B1 VL with D1V, M4L, V90F
B6: 32B5.1 ADC (conjugate)
VH: B1 VH with Q81H, M82V, R86S, T90S, M102L
VL: B1 VL with D1V, M4L, V90F
B7: Ab-4: fully human anti-huBCMA mAb, Vh SEQ ID NO:212, Vl SEQ ID NO:246 (antibody, V domains shown)
VH: QVQLVQSGAEVKKPGASVKVSCKASGYTFTGHYIHWVRQAPGQGLEWMGWIYPNSGGTNYAQKFQGRVTMTRDTSISTAYMELSRLRSDDSAVYYCAREGMVTGDYYYYRMDVWGQGTTVIVSS
VL: QPVLTQPPSASASLGASVTLTCSLSSGYSNYKVDWYQQRPGKGPRFVMRVGIGGIVGSKGDGIPDRFSVLGSGLNRYLTIKNIQEEDESDFHCGADHGSGNNFVYVFGTGTKVTVLG

How the values were obtained:
[1] = test system: various cell lines; experiment: Cell viability of various cell lines exposed to free DM1; format: cell-based; settings: control
Procedure: The ADCs were tested for the ability to target and kill BCMA-expressing myeloma cells. The CellTiter-Glo® Luminescent Cell Viability Assay is a homogeneous method to determine the number of viable cells in culture based on quantitation of the ATP present, which signals the presence of metabolically active cells. The CellTiter-Glo® Assay is applicable to cytotoxicity assays (see http://www.promega.com/products/cell-health-assays/cell-viability-assays/celltiter_glo-luminescent-cell-viability-assay/for more information). The cell viability assay was used to assess the relative killing capacity of various ADCs on various multiple myeloma cell lines and B-cell lines. The protocol provided in the Cell Titer-Glo kit (Promega G7572) was followed. In short, 5×10^3 target cells in 90 ul RPMI 1640, 10% FBS were aliquoted into clear, flat bottom, white walled 96 well plates (Costar #3903). The ADCs were diluted into a 10× stock to create 500 nM maytansine drug equivalents. Each ADC was serially diluted in 2-fold dilutions in RPMI 1640, 10% FBS starting with 500 nM stock. […] Luminescence was read on an EnVision™ Multilabel reader (PerkinElmer) or Analyst HT plate reader (LJL Biosciences). The data was analyzed and graphed using GraphPad Prism™ to determine the relative efficacy of the ADCs on various cancer cell lines. […]

[2] = test system: H929; experiment: CellTiter-Glo Luminescent Cell Viability Assay, H929; format: cell-based, human; settings: ADCs of hybridoma-derived antibodies
Procedure: The ADCs were tested for the ability to target and kill BCMA-expressing myeloma cells. The CellTiter-Glo® Luminescent Cell Viability Assay is a homogeneous method to determine the number of viable cells in culture based on quantitation of the ATP present, which signals the presence of metabolically active cells. The CellTiter-Glo® Assay is applicable to cytotoxicity assays (see http://www.promega.com/products/cell-health-assays/cell-viability-assays/celltiter_glo-luminescent-cell-viability-assay/for more information). The cell viability assay was used to assess the relative killing capacity of various ADCs on various multiple myeloma cell lines and B-cell lines. The protocol provided in the Cell Titer-Glo kit (Promega G7572) was followed. […] The ADCs were diluted into a 10× stock to create 500 nM maytansine drug equivalents. […] 10 ul of the 10×ADC dilution series was added to the 90 ul of cells in media (triplicate wells). The highest concentration of ADC was approximately 50 nM maytansine drug equivalents, and the lowest concentration of ADC was approximately 50 pM maytansine drug equivalents. An isotype control ADC (an anti-streptavidin huIgG1 conjugated to MCC-DM1) was included, as well as a media-only control. The plates were incubated at 37° C., 5% CO2 for 96 hours. After incubation, 100 ul of the Substrate Solution (Promega G7572) was added to each well. Luminescence was read on an EnVision™ Multilabel reader (PerkinElmer) or Analyst HT plate reader (LJL Biosciences). The data was analyzed and graphed using GraphPad Prism™ to determine the relative efficacy of the ADCs on various cancer cell lines.
The 2A1CV5-MCC-DM1, 32B5-MCC-DM1 and 29C12-MCC-DM1 ADCs were tested for the ability to target and kill BCMA-expressing myeloma cells (H929). The CellTiter-Glo® Luminescent Cell Viability Assay is a homogeneous method to determine the number of viable cells in culture based on quantitation of the ATP present, which signals the presence of metabolically active cells. The CellTiter-Glo® Assay is applicable to cytotoxicity assays (see http://www.promega.com/products/cell-health-assays/cell-viability-assays/celltiter_glo-luminescent-cell-viability-assay/for more information). The cell viability assay was used to assess the relative killing capacity of various ADCs on various multiple myeloma cell lines and B-cell lines. The protocol provided in the Cell Titer-Glo kit (Promega G7572) was followed. […] The ADCs were diluted into a 10× stock to create 500 nM maytansine drug equivalents. […] 10 ul of the 10×ADC dilution series was added to the 90 ul of cells in media (triplicate wells). The highest concentration of ADC was approximately 50 nM maytansine drug equivalents, and the lowest concentration of ADC was approximately 50 pM maytansine drug equivalents. An isotype control ADC (an anti-streptavidin huIgG1 conjugated to MCC-DM1) was included, as well as a media-only control. The plates were incubated at 37° C., 5% CO2 for 96 hours. After incubation, 100 ul of the Substrate Solution (Promega G7572) was added to each well. Luminescence was read on an EnVision™ Multilabel reader (PerkinElmer) or Analyst HT plate reader (LJL Biosciences). The data was analyzed and graphed using GraphPad Prism™ to determine the relative efficacy of the ADCs on various cancer cell lines.

[3] = biological target: T1, BCMA on H929 cells; experiment: FACS binding to native BCMA on H929 myeloma cells
Procedure: Approximately 10 to 40×10^6 of H929 myeloma cells were resuspended in a staining solution (2% goat serum, 1% rabbit serum, 0.02% azide in PBS) and aliquoted into round-bottom, 96-well plate (Corning Incorp., Acton, Mass.) as per the experiment design. The cells were incubated at 4 degrees celsius for 30 minutes to block non-specific sites. The antibodies were titrated into the staining solution. The cells were rinsed in a rinse solution (PBS+0.02% azide) by resuspending the cells in 200 ul/well. The cells were centrifuged at 1500 rpm at 4 degrees celsius for 7 minutes. The rinse solution was removed and the rinse step was repeated. […] The cells/antibodies were rinsed as described above to remove excess/unbound antibody. After the last rinse, the cells were resuspended in 200 ul of rinse solution with a drop of staining solution added to keep the cells from aggregating.
The antibodies were tested for binding to BCMA endogenously-expressed on a variety of cells, including the H929 cell line, which were developed from B-lymphocytes from a myeloma/plasmacytoma patient (ATCC, Manassa, Va.) using standard FACs techniques. […] The supernatants were removed and the cell pellets were resuspended in 0.2 mL/tube 4% paraformaldehyde in PBS and analyzed by flow cytometry

[4] = biological target: T2, human BCMA; experiment: FACS binding on cells transiently transfected to express full length BCMA
Procedure: An important criterion is exquisite selectivity for wild-type human BCMA expressed on the surface of cells. FACS binding on cells transiently transfected to express full length BCMA, TACI, or BAFF-R was performed using standard techniques. Approximately 40×10^6 of the transiently-transfected target cells were resuspended in a staining solution (2% goat serum, 1% rabbit serum, 0.02% azide in PBS) and aliquoted into round-bottom, 96-well plate (Corning Incorp., Acton, Mass.) as per the experiment design. The cells were incubated at 4 degrees celsius for 30 minutes to block non-specific sites. The antibodies were titrated into the staining solution. The cells were rinsed in a rinse solution (PBS+0.02% azide) by resuspending the cells in 200 ul/well. The cells were centrifuged at 1500 rpm at 4 degrees celsius for 7 minutes. The rinse solution was removed and the rinse step was repeated. The cells were resuspended in the appropriate antibody solution (see the matrix in TABLE 4) at 30 ul/well and incubated at 4 degrees celsius for 30 minutes. […] For the mouse IgG1 negative control and the two mouse antibodies (1.183 and 1.288), the secondary reagent was an anti-mouse IgG-PE conjugate (BD Pharmingen Cat. 550589). The cells/antibodies were rinsed as described above to remove excess/unbound antibody. […] Samples were read at 532 nm wavelength on FACS. […]

Molecule | cytotoxicity to huBCMA-expressing myeloma target cells (H929) [2] | further results
COc1cc2cc(c1Cl)N(C)C(=O)C[C@H](OC(=O)[C@H](C)N(C)C(=O)CCS)[C@]1(C)O[C@H]1[C@H](C)[C@@H]1C[C@@](O)(NC(=O)O1)[C@H](OC)/C=C/C=C(\C)C2 [DM1] | – | killing by free DM1 [1]: killed by free DM1
B1 | showed cytotoxicity | –
B2 | showed cytotoxicity | –
B3 | showed cytotoxicity | –
B4 | showed cytotoxicity | –
B5 | showed cytotoxicity | –
B6 | showed cytotoxicity | –
B7 | – | binding to human BCMA on the surface of H929 myeloma cell line [3]: bound to human BCMA; BCMA (FACS binding) [4]: + (A sample was considered positive for binding if the MFI was two times the negative control value)
